Data from paper PMC1713233, “Implantation Serine Proteinases heterodimerize and are critical in hatching and implantation” (BMC Developmental Biology, 2006).

Biological target: T1, ISP1-ISP2 enzyme complex (Mus musculus, UniProt Q924N9+Q99MS4)
T1 construct: The native ISP enzyme complex was purified from mouse uterine tissue homogenates; from tissue; host or cells: uterus of pregnant CD1 mice (4.5-6.5 dpc)
Test: Inhibition of proteolytic activity of ISP enzyme complex, chromogenic assay with BAPNA as substrate
Type: biochemical
Experimental: Many general serine proteinase inhibitors were tested in order to identify suitable ISP inhibitors when BAPNA was used as a substrate. These included Benzamidine hydrochloride, 4-(Amidino-Phenyl)-Methane-Sulfonyl Fluoride (APMSF), L-1 Chloro-3- [4-tosyl-amido]-7-amino-2-heptanone. HCl (TLCK), Trypsin Soybean Inhibitor (TSI), Bis (5-amidino-2-benzimadozolyl) methane (BABIM), Gabexate mesylate, Nafamostat, and the kunitz family serpins Uterine Plasmin-Trypsin Inhibitor (UPTI) and Secretary Leukocyte proteinase inhibitor (SLPI).
Only inhibitors specific for trypsin-like serine proteinases were able to inhibit the ISPs (Fig. 4B and Additional file 2. Table 1). IC50 (concentration of an inhibitor capable of inhibiting the enzyme activity by 50%) values were obtained by plotting inhibition data, which were extrapolated into Cheng and Prusoff's equation to derive the dissociation constant (Ki).
Chromogenic assays were carried out using the p-Nitroanilide conjugated peptidic substrates. The reaction conditions used were: 4 mM BAPNA (substrate), in 25 mM Tris.Cl (pH 8.0) and 10 mM EDTA reaction buffer, in a total reaction volume of 0.5 mL. The reactions were carried out at room temperature in a glass cuvette (1 cm path length), and scanned at wavelength maxima of 405 nm using a spectrophotometer. 1 Unit of enzyme is defined as enzyme activity sufficient for the breakdown of 1 μM of substrate/ml/min. The affinity of ISP complex with various substrates was characterized by measuring enzyme activity at differing substrate concentrations and plotting enzyme activity [V] vs. substrate concentration [S]. The Km was calculated using the Michaelis Menton equation (Km = [S] at 1/2 Vmax).
IC50 values were derived by plotting enzyme activity (V) vs. inhibitor concentration [I]. Dissociation constants (Ki) values for different inhibitors were determined by using the Cheng and Prusoff equation (Ki = IC50/1 + [S]/Km).

T1 sequence (Q924N9 27-274): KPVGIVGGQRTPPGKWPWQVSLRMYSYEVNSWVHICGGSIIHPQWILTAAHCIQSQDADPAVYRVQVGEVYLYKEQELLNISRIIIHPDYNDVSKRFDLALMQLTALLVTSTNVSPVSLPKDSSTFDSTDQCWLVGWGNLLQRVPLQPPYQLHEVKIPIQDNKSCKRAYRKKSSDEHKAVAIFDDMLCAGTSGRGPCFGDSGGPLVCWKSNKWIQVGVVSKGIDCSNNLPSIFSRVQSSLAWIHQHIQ
T1 sequence (Q99MS4 18-279): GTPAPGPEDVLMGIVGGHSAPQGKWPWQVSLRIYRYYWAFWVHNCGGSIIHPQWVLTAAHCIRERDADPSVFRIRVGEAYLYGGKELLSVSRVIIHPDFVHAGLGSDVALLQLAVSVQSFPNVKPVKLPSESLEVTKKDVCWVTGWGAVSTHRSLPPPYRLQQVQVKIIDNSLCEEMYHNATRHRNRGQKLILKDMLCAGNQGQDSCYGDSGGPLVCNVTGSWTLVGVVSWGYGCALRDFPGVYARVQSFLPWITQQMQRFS

B1: TSI: Trypsin Soybean Inhibitor, obtained from Sigma Aldrich (protein, UniProt P01070 25-205, looked up)
Trypsin inhibitor A: DFVLDNEGNPLENGGTYYILSDITAFGGIRAAPTGNERCPLTVVQSRNELDKGIGTIISSPYRIRFIAEGHPLSLKFDSFAVIMLCVGIPTEWSVVEDLPEGPAVKIGENKDAMDGWFRLERVSDDEFNNYKLVFCPQQAEDDKCGDIGISIDHDDGTRRLVVSKNKPLVVQFQKLDKESL
4 mM BAPNA substrate, 25 mM Tris.Cl pH 8.0, room temperature, read-out: IC50%
  IC50: 8 µM
Fig. 4B, compared to Benzamidine
  Affinity for ISP enzyme: relatively high affinity
General trypsin inhibitors
  Influence on ISP activity: inhibitory influence
